In US20110081659 one finds S/B, LANCE Ultra kinase assay, 20 nM enzyme, n = 1 and S/B, LANCE Ultra kinase assay, 20 nM enzyme, n = 2 data, which are given here for one protein.

For this series, the target named is T1, ULight-labeled 4E-BP1 fragment peptide GSK3 substrate (non-primed).
T1 chain: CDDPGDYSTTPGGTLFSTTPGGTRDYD

B1: GSK3α (Carna) (protein)
chain: MSGGGPSGGGPGGSGRARTSSFAEPGGGGGGGGGGPGGSASGPGGTGGGKASVGAMGGGVGASSSGGGPGGSGGGGSGGPGAGTSFPPPGVKLGRDSGKVTTVVATLGQGPERSQEVAYTDIKVIGNGSFGVVYQARLAETRELVAIKKVLQDKRFKNRELQIMRKLDHCNIVRLRYFFYSSGEKKDELYLNLVLEYVPETVYRVARHFTKAKLTIPILYVKVYMYQLFRSLAYIHSQGVCHRDIKPQNLLVDPDTAVLKLCDFGSAKQLVRGEPNVSYICSRYYRAPELIFGATDYTSSIDVWSAGCVLAELLLGQPIFPGDSGVDQLVEIIKVLGTPTREQIREMNPNYTEFKFPQIKAHPWTKVFKSRTPPEAIALCSSLLEYTPSSRLSPLEACAHSFFDELRCLGTQLPNNRPLPPLFNFSAGELSIQPSLNAILIPPHLRSPAGTTTLTPSSQALTETPTSSDWQSTDATPTLTNSS
B1 had a S/B, LANCE Ultra kinase assay, 20 nM enzyme, n = 1 of 35.7 and a S/B, LANCE Ultra kinase assay, 20 nM enzyme, n = 2 of 33.2.
